The results in this text go back to PMC10621737.

In this data set the target is T1, rMtbEspR (Mycobacterium tuberculosis H37Rv, UniProt P9WJB7 1-132).
T1 sequence: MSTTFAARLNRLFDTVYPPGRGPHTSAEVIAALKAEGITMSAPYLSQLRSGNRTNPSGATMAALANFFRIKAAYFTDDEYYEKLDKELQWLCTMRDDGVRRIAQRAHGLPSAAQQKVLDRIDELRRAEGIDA
Briefly: EMSA; poly(dI-dC) 50 ng/ml. The settings on record: protein: recombinant; tags: N- and C-terminal 6xHis; chain copies: 2; label: 32P 5' end (T4 PNK); blunt.

B1: HIV LTR EMSA probe (dsDNA)
DNA 1: CAGTTGAACCAGAGCAAGTAGAAGAGGCC
DNA 2: GGCCTCTTCTACTTGCTCTGGTTCAACTG
In the case of B1, the binding result is “no binding”.

B2: IFN-gamma promoter EMSA probe (dsDNA)
DNA 1: GAATTTCGTTTTTCACTTGTTCCCAACCACAAGCAAATGATCAATGT
DNA 2: ACATTGATCATTTGCTTGTGGTTGGGAACAAGTGAAAAACGAAATTC
As to B2, the binding result is “no binding”.

B3: IL-4 promoter full EMSA probe (FL) (dsDNA)
DNA 1: CTATGCAAAGCAAAAAGCCAGCAGCAGCCCCAAGCTGATAAGATTAATCTAAAGAGCAAATTATGGTG
DNA 2: CACCATAATTTGCTCTTTAGATTAATCTTATCAGCTTGGGGCTGCTGCTGGCTTTTTGCTTTGCATAG
B3: the binding result was “binds”.
